We go through seven molecules from patent US20160108087A1 (ROYAL INSTITUTION FOR THE ADVANCEMENT OF LEARNING MCGILL …, published 2016).

The chains are these.
B2: 14-3-3ε protein (mouse, endogenous in MA-10 mouse Leydig tumor cells) (other, UniProt P62259 1-255, looked up)
chain: MDDREDLVYQAKLAEQAERYDEMVESMKKVAGMDVELTVEERNLLSVAYKNVIGARRASWRIISSIEQKEENKGGEDKLKMIREYRQMVETELKLICCDILDVLDKHLIPAANTGESKVFYYKMKGDYHRYLAEFATGNDRKEAAENSLVAYKAASDIAMTELPPTHPIRLGLALNFSVFYYEILNSPDRACRLAKAAFDDAIAELDTLSEESYKDSTLIMQLLRDNLTLWTSDMQGDGEEQNKEALQDVEDENQ
notes: whole, on cells; Endogenous intracellular protein, detected in fixed cells (Duolink) or cell lysates (co-IP); also called YWHAE gene product; mitochondrial import stimulating factor

Experiment [1] deals with B2. The experiment in a line: Duolink in cell IP in MA-10 cells, competition with endogenous VDAC1, 250 nM peptide.
For experiment [2], the target named is T1, translocator protein (TSPO), mouse, endogenous in MA-10 cells (mouse, UniProt P50637 1-169).
T1 construct: whole, on cells; Endogenous outer mitochondrial membrane protein
T1 sequence (P50637 whole entry): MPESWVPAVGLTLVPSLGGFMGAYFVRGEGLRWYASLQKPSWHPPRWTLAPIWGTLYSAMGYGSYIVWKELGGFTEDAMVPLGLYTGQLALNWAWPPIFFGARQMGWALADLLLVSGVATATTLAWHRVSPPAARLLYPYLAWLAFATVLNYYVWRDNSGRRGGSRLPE
In words: Duolink in cell IP in MA-10 cells, signal/cell ratio, with TVS167 and 8-Br-cAMP (120 min).

Experiment [3] concerns the target T2, VDAC1 protein (mouse, endogenous in MA-10 cells) (mouse, UniProt Q60932 14-296).
T2 construct: Endogenous protein of the outer mitochondrial membrane in MA-10 cells; also called voltage-dependent anion-selective channel protein 1; mVDAC1
The experiment in a line: Duolink in cell IP in MA-10 cells (figure legend).

Experiment [4] has as its target T3, VDAC1 protein (rat, endogenous in testes sections of Sprague-Dawley rats) (rat, UniProt Q9Z2L0 1-283).
T3 construct: Endogenous protein in tissue sections
The experiment in a line: Duolink assay on rat testes sections (figure legend).

In experiment [5] the target is T4, VDAC1 protein (human, endogenous in NCL-H295R adrenocortical cells) (human, UniProt P21796 2-283).
T4 construct: Endogenous protein
T4 sequence (P21796 2-283 limits assumed, stated change not applied): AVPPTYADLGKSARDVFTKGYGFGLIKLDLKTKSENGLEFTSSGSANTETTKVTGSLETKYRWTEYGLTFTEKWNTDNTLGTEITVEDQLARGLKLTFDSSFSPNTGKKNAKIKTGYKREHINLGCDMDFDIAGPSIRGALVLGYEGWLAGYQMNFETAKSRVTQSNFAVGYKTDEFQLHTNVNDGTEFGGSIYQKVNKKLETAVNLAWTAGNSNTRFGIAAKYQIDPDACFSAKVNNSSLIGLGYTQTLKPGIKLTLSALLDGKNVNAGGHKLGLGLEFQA
The experiment in a line: Duolink assay in human adrenocortical cell line (figure legend).

T2 sequence (Q60932 14-296): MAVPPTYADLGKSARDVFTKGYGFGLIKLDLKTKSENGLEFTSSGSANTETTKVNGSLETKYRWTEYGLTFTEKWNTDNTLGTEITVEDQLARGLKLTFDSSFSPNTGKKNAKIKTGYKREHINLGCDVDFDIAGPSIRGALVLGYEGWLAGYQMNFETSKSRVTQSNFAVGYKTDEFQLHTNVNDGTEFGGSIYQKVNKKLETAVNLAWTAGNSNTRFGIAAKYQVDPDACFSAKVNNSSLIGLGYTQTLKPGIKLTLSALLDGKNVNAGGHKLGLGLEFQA
T3 sequence (Q9Z2L0 whole entry): as the sequence (Q60932 14-296) above

B1: TAT-VDAC1 fusion peptide S167 (TVS167) (peptide)
peptide: YGRKKRRQRRRGSKSRVTQSNFAVG
notes: A FAM-labelled form was used only to show cell penetration; also called TAT-VDAC1 Ser167; TV167
As to B1, in experiment [1], the binding result is reported as “binds”.

With YGRKKRRQRRRGSKSRVTQGNFAVG (also called TVS167G) [TAT-VDAC1 Gly167 (TVG167)], the binding result in experiment [1] is on record as “binds”.

Take B2: in experiment [2], the “fold increase of interactions in the presence of TVS167 against untreated control” value is 1.6 fold. Besides, the binding result in experiment [3] is recorded as “binds”.

B3: 14-3-3ε protein (rat, endogenous in testes sections of Sprague-Dawley rats) (other, UniProt P62260 1-255, looked up)
chain: MDDREDLVYQAKLAEQAERYDEMVESMKKVAGMDVELTVEERNLLSVAYKNVIGARRASWRIISSIEQKEENKGGEDKLKMIREYRQMVETELKLICCDILDVLDKHLIPAANTGESKVFYYKMKGDYHRYLAEFATGNDRKEAAENSLVAYKAASDIAMTELPPTHPIRLGLALNFSVFYYEILNSPDRACRLAKAAFDDAIAELDTLSEESYKDSTLIMQLLRDNLTLWTSDMQGDGEEQNKEALQDVEDENQ
notes: whole, on cells; Endogenous protein in tissue sections
Regarding B3, the binding result in experiment [4] is “binds”.

B4: 14-3-3ε protein (human, endogenous in NCL-H295R adrenocortical cells) (other, UniProt P62258 1-255, looked up)
chain: MDDREDLVYQAKLAEQAERYDEMVESMKKVAGMDVELTVEERNLLSVAYKNVIGARRASWRIISSIEQKEENKGGEDKLKMIREYRQMVETELKLICCDILDVLDKHLIPAANTGESKVFYYKMKGDYHRYLAEFATGNDRKEAAENSLVAYKAASDIAMTELPPTHPIRLGLALNFSVFYYEILNSPDRACRLAKAAFDDAIAELDTLSEESYKDSTLIMQLLRDNLTLWTSDMQGDGEEQNKEALQDVEDENQ
notes: whole, on cells; Endogenous protein
For the molecule B4, the binding result in experiment [5] was “binds”.

On to YGRKKRRQRRRGKLDLKTKSENGLE (also called TAT-VDAC1 Ser35) [TAT-VDAC1 fusion peptide S35 (TVS35)], for which the binding result in experiment [1] is reported as “binds”.

As for YGRKKRRQRRRGKLDLKTKGENGLE (also called TVS35G) [TAT-VDAC1 Gly35 (TVG35)], the binding result in experiment [1] is reported as “binds”.
